Data set [1] deals with T1, murine CCL22 (Mus musculus, UniProt O88430 25-92).
T1 sequence: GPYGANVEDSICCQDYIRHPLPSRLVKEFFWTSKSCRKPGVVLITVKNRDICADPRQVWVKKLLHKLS
Kind of data set: SPR. On the technique in general: In SPR one partner is held on a chip, and binding of the other changes the refractive index at the surface.

Data set [2] addresses T2, murine CCL17 (Mus musculus, UniProt Q9WUZ6 24-93).
T2 sequence: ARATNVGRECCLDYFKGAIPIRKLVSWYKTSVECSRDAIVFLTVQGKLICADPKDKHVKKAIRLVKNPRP
Kind of data set: ELONA.

The target of data set [3] is human CCL17 (Homo sapiens, UniProt Q92583 24-94). Kind of data set: ELONA.
human CCL17, sequence (Q92583 24-94): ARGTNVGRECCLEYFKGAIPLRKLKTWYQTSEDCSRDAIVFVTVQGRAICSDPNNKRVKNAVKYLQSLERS
The target in data set [4] is T3, human CCL22 (Homo sapiens, UniProt O00626 25-93).
T3 sequence: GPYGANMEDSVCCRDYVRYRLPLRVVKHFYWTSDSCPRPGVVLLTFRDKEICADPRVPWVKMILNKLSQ
Kind of data set: ELONA.

In data set [5] the target is T1, murine CCL22. In words: flow cytometry on CCL22 beads.

B1: AJ102 (ssDNA)
DNA: GCTGTGTGACTCCTGCAATAGGCGAGTGTGGGTGGGTGGGCGTTCTCAGTGGTTCTCAGTAGCAGCTGTATCTTGTCTCC
As a reminder, the Kd is the free concentration of one partner at which half of the binding sites on the other are occupied at equilibrium, for simple one-to-one binding. Read a low Kd as tighter binding. As to B1, the Kd was found to be 10.7 nM in data set [1] and 147 nM in data set [5]. Also, the binding result in data set [2], in data set [3] and in data set [4] was “no binding” in each case.

B2: AJ82 (ssDNA)
DNA: GCTGTGTGACTCCTGCAAGCTGTGGAGTCGTCGTTCGGGTTATGGGGGATGGGGTTGAGTGGCAGCTGTATCTTGTCTCC
B2: the Kd in data set [1] worked out at 24.8 nM; in data set [5], 146 nM. In addition, the binding result in data set [2], in data set [3] and in data set [4] was “no binding” each time.

B3: AJ102.29 (ssDNA)
DNA: TAGGCGAGTGTGGGTGGGTGGGCGTTCTC
Turning to B3, in data set [5], the Kd was determined as 63.6 nM. This counts as double-digit nanomolar.
